Results reported in the supplement of paper PMC9112550, “Optimization of the antimicrobial peptide Bac7 by deep mutational scanning” (BMC Biology, 2022).

The sequences below were run on Escherichia coli TOP10 (assay: shrunken log2 fold change of peptide-encoding DNA abundance (4.5 h post-induction vs induction); higher = less antimicrobial activity (less host growth inhibition)). Details: time post-induction: 4.5 h; library: site-saturation at positions 5, 18, 19, 20.
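Further: peptides expressed intracellularly from a pBAD plasmid library in pooled LB shake-flask culture, induced with 0.3% L-arabinose, DNA abundance read by NGS, three biological replicates, DESeq2 with apeglm shrinkage.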

| Sequence | shrunken log2 fold change |
| --- | --- |
| RRIRRRPPRLPRPRPRPELRPRP | 0.463 |
| RRIRYRPPRLPRPRPRPHIHPRP | -0.745 |
| RRIRKRPPRLPRPRPRPCQHPRP | -0.167 |
| RRIRPRPPRLPRPRPRPWFKPRP | -0.125 |
| RRIRERPPRLPRPRPRPHMRPRP | 0.0528 |
| RRIRARPPRLPRPRPRPPHYPRP | 0.857 |
| RRIRFRPPRLPRPRPRPPDDPRP | 0.371 |
| RRIRFRPPRLPRPRPRPGTCPRP | -0.161 |
| RRIRPRPPRLPRPRPRPWDGPRP | -0.0681 |
| RRIRNRPPRLPRPRPRPYNYPRP | -0.067 |
| RRIRGRPPRLPRPRPRPGGHPRP | 0.779 |
| RRIRSRPPRLPRPRPRPCGNPRP | 0.1 |
| RRIRFRPPRLPRPRPRPGSTPRP | -0.183 |
| RRIRWRPPRLPRPRPRPLDHPRP | 0.165 |
| RRIRGRPPRLPRPRPRPKERPRP | 0.00594 |
| RRIRPRPPRLPRPRPRPMARPRP | 0.154 |
| RRIRYRPPRLPRPRPRPDPEPRP | -0.345 |
| RRIRWRPPRLPRPRPRPKCQPRP | 0.136 |
| RRIRKRPPRLPRPRPRPWTHPRP | 0.0375 |
| RRIRGRPPRLPRPRPRPSMTPRP | 2.35 |
| RRIRIRPPRLPRPRPRPRCFPRP | -0.141 |
| RRIRTRPPRLPRPRPRPDNCPRP | 0.00765 |
| RRIRSRPPRLPRPRPRPCEGPRP | -0.00992 |
| RRIRSRPPRLPRPRPRPKHIPRP | -0.368 |
| RRIRGRPPRLPRPRPRPHIFPRP | 0.224 |

| Sequence | shrunken log2 fold change |
| --- | --- |
| RRIRPRPPRLPRPRPRPTHGPRP | 0.478 |
| RRIRLRPPRLPRPRPRPIPPPRP | 0.0351 |
| RRIRYRPPRLPRPRPRPPIYPRP | -0.676 |
| RRIRYRPPRLPRPRPRPNWVPRP | -0.443 |
| RRIRARPPRLPRPRPRPQYSPRP | -0.0321 |
| RRIRWRPPRLPRPRPRPARCPRP | 0.209 |
| RRIRTRPPRLPRPRPRPECHPRP | -0.247 |
| RRIRDRPPRLPRPRPRPCYTPRP | -0.295 |
| RRIRGRPPRLPRPRPRPRRGPRP | 0.813 |
| RRIRTRPPRLPRPRPRPEKDPRP | -0.271 |
| RRIRCRPPRLPRPRPRPEDIPRP | -0.12 |
| RRIRIRPPRLPRPRPRPEETPRP | -0.00208 |
| RRIRLRPPRLPRPRPRPAWMPRP | -0.0208 |
| RRIRKRPPRLPRPRPRPILYPRP | -0.505 |
| RRIRRRPPRLPRPRPRPAVTPRP | -0.111 |
| RRIRWRPPRLPRPRPRPLFIPRP | -0.353 |
| RRIRARPPRLPRPRPRPYTYPRP | -0.458 |
| RRIRIRPPRLPRPRPRPYACPRP | -0.0484 |
| RRIRCRPPRLPRPRPRPTGPPRP | 0.669 |
| RRIRTRPPRLPRPRPRPVVHPRP | -0.0314 |
| RRIRERPPRLPRPRPRPCTVPRP | -0.0354 |
| RRIRLRPPRLPRPRPRPNTHPRP | -0.473 |
| RRIRCRPPRLPRPRPRPMWPPRP | 0.481 |
| RRIRRRPPRLPRPRPRPFHGPRP | -0.17 |
| RRIRCRPPRLPRPRPRPDTVPRP | -0.369 |

| Sequence | shrunken log2 fold change |
| --- | --- |
| RRIRSRPPRLPRPRPRPKYTPRP | -0.518 |
| RRIRLRPPRLPRPRPRPRPQPRP | 0.398 |
| RRIRCRPPRLPRPRPRPTYEPRP | -0.717 |
| RRIRNRPPRLPRPRPRPNFYPRP | -0.225 |
| RRIRCRPPRLPRPRPRPEHQPRP | 0.0614 |
| RRIRYRPPRLPRPRPRPHVFPRP | -0.0822 |
| RRIRLRPPRLPRPRPRPWFEPRP | -0.218 |
| RRIRYRPPRLPRPRPRPMFWPRP | -0.0534 |
| RRIRKRPPRLPRPRPRPTHPPRP | 0.932 |
| RRIRHRPPRLPRPRPRPIQPPRP | 0.0532 |
| RRIRSRPPRLPRPRPRPAVNPRP | 0.0811 |
| RRIRHRPPRLPRPRPRPGDCPRP | -0.0887 |
| RRIRARPPRLPRPRPRPADQPRP | 0.755 |
| RRIRWRPPRLPRPRPRPYFNPRP | -1.06 |
| RRIRHRPPRLPRPRPRPHNRPRP | -0.0976 |
| RRIRCRPPRLPRPRPRPVQLPRP | 0.0365 |
| RRIRYRPPRLPRPRPRPPVVPRP | 0.00632 |
| RRIRVRPPRLPRPRPRPGCKPRP | 0.32 |
| RRIRFRPPRLPRPRPRPSDYPRP | -0.219 |
| RRIRGRPPRLPRPRPRPSCSPRP | 0.295 |
| RRIRHRPPRLPRPRPRPKKMPRP | -0.132 |
| RRIRARPPRLPRPRPRPIKEPRP | -0.0357 |
| RRIRNRPPRLPRPRPRPKKSPRP | 0.129 |
| RRIRARPPRLPRPRPRPALQPRP | 0.354 |
| RRIRKRPPRLPRPRPRPMQIPRP | -0.0337 |

| Sequence | shrunken log2 fold change |
| --- | --- |
| RRIRDRPPRLPRPRPRPYGYPRP | -0.575 |
| RRIRYRPPRLPRPRPRPRDMPRP | -0.339 |
| RRIRQRPPRLPRPRPRPWKPPRP | -0.00884 |
| RRIRIRPPRLPRPRPRPTKGPRP | 0.0205 |
| RRIRKRPPRLPRPRPRPKEKPRP | 0.0508 |
| RRIRLRPPRLPRPRPRPQWNPRP | -0.289 |
| RRIRWRPPRLPRPRPRPAQGPRP | 0.27 |
| RRIRCRPPRLPRPRPRPHTSPRP | -0.498 |
| RRIRARPPRLPRPRPRPQWFPRP | 0.0925 |
| RRIRNRPPRLPRPRPRPAPWPRP | 0.266 |
| RRIRYRPPRLPRPRPRPGYKPRP | -0.978 |
| RRIRGRPPRLPRPRPRPGEAPRP | 1.48 |
| RRIRERPPRLPRPRPRPTLSPRP | 0.0115 |
| RRIRKRPPRLPRPRPRPYPGPRP | -0.142 |
| RRIRWRPPRLPRPRPRPEMVPRP | -0.222 |
| RRIRYRPPRLPRPRPRPQPWPRP | -0.149 |
| RRIRRRPPRLPRPRPRPQAFPRP | 0.0653 |
| RRIRSRPPRLPRPRPRPKCKPRP | -0.0132 |
| RRIRARPPRLPRPRPRPIDHPRP | -0.00706 |
| RRIRKRPPRLPRPRPRPGSAPRP | 0.843 |
| RRIRMRPPRLPRPRPRPWRKPRP | 0.506 |
| RRIRLRPPRLPRPRPRPSKAPRP | -0.0252 |
| RRIRWRPPRLPRPRPRPYQGPRP | -0.0161 |
| RRIRSRPPRLPRPRPRPNAWPRP | -0.0228 |
| RRIRERPPRLPRPRPRPGYDPRP | -0.191 |

| Sequence | shrunken log2 fold change |
| --- | --- |
| RRIRKRPPRLPRPRPRPEEYPRP | 0.0303 |
| RRIRVRPPRLPRPRPRPFRKPRP | -0.0712 |
| RRIRSRPPRLPRPRPRPYRGPRP | -0.131 |
| RRIRGRPPRLPRPRPRPEYPPRP | 0.77 |
| RRIRKRPPRLPRPRPRPYPFPRP | 0.00884 |
| RRIRERPPRLPRPRPRPKVLPRP | 0.0059 |
| RRIRVRPPRLPRPRPRPNWHPRP | -0.0428 |
| RRIRCRPPRLPRPRPRPFEFPRP | 0.0705 |
| RRIRVRPPRLPRPRPRPYCDPRP | -0.348 |
| RRIRSRPPRLPRPRPRPATVPRP | -0.15 |
| RRIRLRPPRLPRPRPRPEIAPRP | 0.167 |
| RRIRERPPRLPRPRPRPVCIPRP | -0.541 |
| RRIRIRPPRLPRPRPRPNYAPRP | -0.381 |
| RRIRHRPPRLPRPRPRPEVVPRP | -0.018 |
| RRIRGRPPRLPRPRPRPPAWPRP | 1.34 |
| RRIRTRPPRLPRPRPRPHMQPRP | -0.249 |
| RRIRSRPPRLPRPRPRPWEAPRP | 0.019 |
| RRIRPRPPRLPRPRPRPTTTPRP | 0.142 |
| RRIRVRPPRLPRPRPRPFPPPRP | -0.0462 |
| RRIRCRPPRLPRPRPRPDKYPRP | -0.717 |
| RRIRDRPPRLPRPRPRPCPCPRP | -0.478 |
| RRIRWRPPRLPRPRPRPQNYPRP | -0.445 |
| RRIRCRPPRLPRPRPRPSLIPRP | -0.286 |
| RRIRGRPPRLPRPRPRPRVEPRP | 0.432 |
| RRIRDRPPRLPRPRPRPDTMPRP | 0.373 |

| Sequence | shrunken log2 fold change |
| --- | --- |
| RRIRSRPPRLPRPRPRPTAVPRP | 0.466 |
| RRIRCRPPRLPRPRPRPDHRPRP | -0.106 |
| RRIRDRPPRLPRPRPRPLYQPRP | -0.0432 |
| RRIRKRPPRLPRPRPRPKDRPRP | 0.088 |
| RRIRSRPPRLPRPRPRPRTTPRP | 0.318 |
| RRIRKRPPRLPRPRPRPTPKPRP | 0.334 |
| RRIRYRPPRLPRPRPRPWDPPRP | -0.0966 |
| RRIRPRPPRLPRPRPRPIERPRP | 0.157 |
| RRIRLRPPRLPRPRPRPNSSPRP | -0.11 |
| RRIRMRPPRLPRPRPRPQFIPRP | -0.0965 |
| RRIRCRPPRLPRPRPRPVCHPRP | -0.294 |
| RRIRCRPPRLPRPRPRPKISPRP | -0.712 |
| RRIRKRPPRLPRPRPRPVAFPRP | 0.238 |
| RRIRGRPPRLPRPRPRPIMSPRP | 0.0881 |
| RRIRLRPPRLPRPRPRPCYGPRP | -0.0306 |
| RRIRCRPPRLPRPRPRPGPDPRP | 0.359 |
| RRIRARPPRLPRPRPRPWDTPRP | 0.0787 |
| RRIRMRPPRLPRPRPRPAHIPRP | -0.161 |
| RRIRHRPPRLPRPRPRPIWDPRP | -0.00794 |
| RRIRTRPPRLPRPRPRPVMAPRP | -0.0918 |
| RRIRWRPPRLPRPRPRPQMAPRP | 0.242 |
| RRIRERPPRLPRPRPRPGQEPRP | 0.0214 |
| RRIRSRPPRLPRPRPRPTKCPRP | -0.258 |
| RRIRCRPPRLPRPRPRPWIFPRP | -0.159 |
| RRIRTRPPRLPRPRPRPEVLPRP | -0.0153 |
